Experiments:
[1] = system: advanced colorectal cancers metastatic to liver (mCRC); details: 3L+ mCRC metastatic to liver; cited from earlier work
mCRC = details: phase II single arm study; cited from earlier work
[2] = system: platinum-resistant or platinum-sensitive recurrent ovarian cancer; experiment: Clinical trial of PARP inhibitor and navicixizumab in PARP naive and PARP resistant cohorts, ORR by TME phenotype; assay type: in vivo, human
Experimental: A clinical trial is run to determine whether ovarian cancer tumor microenvironment phenotypes correlate to clinical responses when patients are treated with a PARP inhibitor, and navicixizumab in PARP naïve patients or patients that previously progressed on PARP inhibitor. The analysis includes samples from two different cohorts (one consisting of PARP inhibitor naïve patients and one consisting of PARP resistant patients). 40 patients from each cohort are randomized to 2 different treatment arms (20 patients in each arm). Patients are randomized to receive either a PARP inhibitor in combination with navicixizumab or PARP inhibitor monotherapy (PARP naïve cohort) or PARP inhibitor in combination with navicixizumab or navicixizumab monotherapy (PARP resistant). RNA gene signatures are analyzed from tumor samples acquired before the treatments and TME phenotypes are determined. Patients are followed for clinical response.
Ovarian cancer patients are randomized to receiving a regimen of PARP inhibitor (Olaparib, Rucaparib, Niraparib, etc.) plus navicixizumab, PARP monotherapy (PARP naive) or Navicixizumab monotherapy. The combination of PARP inhibitor/Navicixizumab increases overall response rate in patients with recurrent ovarian cancer compared to navicixizumab alone in both the PARP naive and PARP resistant cohorts as shown in TABLE 35. […] Eighty (80) total patients are enrolled, 20 in each of the treatment groups across the two cohorts with equal representation across the 4 stromal phenotypes (5 in each phenotype per treatment group). The correlation between each TME phenotype is tested against clinical outcome data. In immune suppressed (IS), and angiogenic (A) patients the use of the regimen of PARPi/Navicixizumab confers benefit in comparison to patients classified to immune active (IA) and immune desert (ID) TME phenotype classes as shown in the TABLE 36.

[3] = system: platinum-resistant or platinum-sensitive recurrent triple negative breast cancer; experiment: Clinical trial of PARP inhibitor, immune checkpoint inhibitor and navicixizumab, ORR by TME phenotype; assay type: in vivo, human
Experimental: A clinical trial is run to determine whether the triple negative breast cancer (TNBC) tumor microenvironment phenotypes correlate to clinical responses when patients are treated with a PARP inhibitor, an immune checkpoint inhibitor, and Navicixizumab after recurrence on platinum-based chemotherapy. The analysis includes samples from two different cohorts (one consisting of platinum-sensitive patients and one consisting of platinum-resistant patients). 40 patients from each cohort are randomized to 2 different treatment arms (20 patients in each arm). Patients are randomized to receive either (i) a PARP inhibitor and an immune checkpoint inhibitor or (ii) a PARP inhibitor, an immune checkpoint inhibitor and Navicixizumab. RNA gene signatures are analyzed from tumor samples acquired before the treatments and TME phenotypes are determined. Patients are followed for clinical response.
TNBC patients are randomized to receiving a regimen of PARP inhibitor (olaparib, rucaparib, niraparib, etc.) plus an immune checkpoint inhibitor (anti-PD-(L)1—i.e., an inhibitor to PD-1 or PD-L1) therapy, or a regimen of PARP inhibitor/immune checkpoint inhibitor/Navicixizumab. The combination of PARP inhibitor/immune checkpoint inhibitor/Navicixizumab increases overall response rate in patients with TNBC compared to the regimen of PARP inhibitor/immune checkpoint inhibitor alone in both the platinum-sensitive and platinum-resistant cohorts as shown in TABLE 37. […] Eighty (80) total patients are enrolled, 20 in each of the treatment groups across the two cohorts with equal representation across the 4 stromal phenotypes (5 in each phenotype per treatment group). The correlation between each TME phenotype is tested against clinical outcome data. In immune active (IA), immune suppressed (IS), and angiogenic (A) patients the use of the regimen of PARPi/immune checkpoint inhibitor/Navicixizumab confers benefit in comparison to patients classified to immune desert (ID) TME phenotype classes as shown in the TABLE 38.

[4] = system: colorectal cancer in dMMR or MSI-H status patients; experiment: Clinical trial of bavituximab and an anti-PD-1 checkpoint inhibitor in dMMR or MSI-H colorectal cancer, outcome by TME phenotype; assay type: in vivo, human
Experimental: A clinical trial is run to determine whether colorectal cancer TME phenotypes correlate to clinical responses when patients with dMMR or MSI-H status are treated with a combination of a checkpoint inhibitor and bavituximab. The analysis includes 40 colorectal cancer tumor samples.
An anti-PD-1 checkpoint inhibitor is known to increase PFS and OS in dMMR or MSI-H status patients with advanced colorectal cancer (CRC), compared to chemotherapy. CRC patients with dMMR or MSI-H have the option of anti-PD-(L)1 after advancement on appropriate front-line therapy. Patients are classified according to an ANN method such as the TME Panel-1 classifier. […] RNA gene signatures are analyzed from biopsy samples prior to treatment with anti-PD-1. The TME phenotypes are correlated with ORR and with 20-week PFS. […] 40 patients are enrolled, 10 in each of the 4 TME phenotypes. The correlation between each tumor TME phenotype is tested against clinical outcome data. In IA or IS patients the use of bavituximab and anti-PD-(L)1 confers gains in comparison to patients classified to angiogenic (A), and immune desert (ID) TME phenotypes as shown in TABLE 18.

melanoma = experiment: Phase 2 trial of adjuvant bavituximab and radiation after neoadjuvant immune checkpoint inhibitor, outcome by TME phenotype; assay type: in vivo, human
Experimental: A phase 2 clinical trial is run to determine whether melanoma tumor microenvironment phenotypes correlate to clinical responses when patients are treated with adjuvant Bavituximab and radiation following neoadjuvant immune checkpoint inhibitor treatment and surgical resection of stage 2b lymph nodes. The analysis includes samples from 20 patients. RNA gene signatures are analyzed from tumor samples acquired as surgical resections and TME phenotypes are determined. Patients are followed for ORR.
Melanoma patients receive a course of neoadjuvant immune checkpoint inhibitor (anti-PD-(L)1—i.e., an inhibitor to PD-1 or PD-L1) therapy and their stage 2b lymph nodes are resected. Radiation and Bavituximab are given as adjuvant therapy. The TME phenotypes from resected tumor samples are correlated to ORR. […] (20) patients are enrolled, with equal representation across the 4 stromal phenotypes (5 in each phenotype). The correlation between each TME phenotype is tested against clinical outcome data. In biomarker positive patients, represented by immune active (IA) and immune suppressed (IS) phenotypes, the use of the regimen of Bavituximab/radiation confers benefit in comparison to patients classified as biomarker negative, comprised of angiogenic (A) and immune desert (ID) TME phenotype classes, as shown in the TABLE 33.

## CNC(=O)c1cc(Oc2ccc(NC(=O)Nc3ccc(Cl)c(C(F)(F)F)c3)c(F)c2)ccn1 [regorafenib]
[1]
  median OS (mOS): ~7 months
  median PFS (mPFS): ~2 months

## ramucirumab plus FOLFIRI: anti-angiogenic ramucirumab plus the chemotherapeutic FOLFIRI
mCRC
  ORR: 58%
  OS: 20.4 mos
  PFS: 11.5 months

## trifluoridine/tipiracil
[1]
  median OS (mOS): ~7 months
  median PFS (mPFS): ~2 months

B1: Navixicizumab (antibody, chains of the INN, looked up, V domains shown)
VH: QVQLVQSGAEVKKPGASVKISCKASGYSFTAYYIHWVKQAPGQGLEWIGYISNYNRATNYNQKFKGRVTFTTDTSTSTAYMELRSLRSDDTAVYYCARDYDYDVGMDYWGQGTLVTVSS
VL: DIVMTQSPDSLAVSLGERATISCRASESVDNYGISFMKWFQQKPGQPPKLLIYAASNQGSGVPDRFSGSGSGTDFTLTISSLQAEDVAVYYCQQSKEVPWTFGGGTKVEIK
VH2: QVQLVQSGAEVKKPGASVKVSCKASGYTFTNYWMHWVRQAPGQGLEWMGDINPSNGRTSYKEKFKRRVTLSVDKSSSTAYMELSSLRSEDTAVYFCTIHYDDKYYPLMDYWGQGTLVTVSS
VL2: B1 VL
[2]; PARP resistant cohort, n = 20 per treatment group
  Overall response rate (ORR): 25%

B2: PARPi/Immune Checkpoint Inhibitor/Navixicizumab (antibody, chains of the INN, looked up, V domains shown)
VH: B1 VH
VL: B1 VL
VH2: B1 VH2
VL2: B1 VL
modifications: with PARP inhibitor and checkpoint inhibitor
[3]; Platinum-resistant cohort, n = 20 per treatment group
  Overall response rate (ORR): 45%

B3: PARPi/immune checkpoint inhibitor/Navicixumab (antibody, chains of the INN, looked up, V domains shown)
VH: B1 VH
VL: B1 VL
VH2: B1 VH2
VL2: B1 VL
modifications: with PARP inhibitor and checkpoint inhibitor
[3]; Platinum-resistant cohort, TME phenotype A (n = 5)
  Overall response rate (ORR): 40
[3]; Platinum-resistant cohort, TME phenotype IA (n = 5)
  Overall response rate (ORR): 60
[3]; Platinum-resistant cohort, TME phenotype ID (n = 5)
  Overall response rate (ORR): 0
[3]; Platinum-resistant cohort, TME phenotype IS (n = 5)
  Overall response rate (ORR): 80
[3]; Platinum-sensitive cohort, TME phenotype A (n = 5)
  Overall response rate (ORR): 100
[3]; Platinum-sensitive cohort, TME phenotype IA (n = 5)
  Overall response rate (ORR): 80
[3]; Platinum-sensitive cohort, TME phenotype ID (n = 5)
  Overall response rate (ORR): 60
[3]; Platinum-sensitive cohort, TME phenotype IS (n = 5)
  Overall response rate (ORR): 80

B4: PARPi/Navicixumab (antibody, chains of the INN, looked up, V domains shown)
VH: B1 VH
VL: B1 VL
VH2: B1 VH2
VL2: B1 VL
modifications: with PARP inhibitor
[2]; PARP naive cohort, TME phenotype A (n = 5)
  Overall response rate (ORR): 100
[2]; PARP naive cohort, TME phenotype IA (n = 5)
  Overall response rate (ORR): 40
[2]; PARP naive cohort, TME phenotype ID (n = 5)
  Overall response rate (ORR): 40
[2]; PARP naive cohort, TME phenotype IS (n = 5)
  Overall response rate (ORR): 80
[2]; PARP resistant cohort, TME phenotype A (n = 5)
  Overall response rate (ORR): 60
[2]; PARP resistant cohort, TME phenotype IA (n = 5)
  Overall response rate (ORR): 20
[2]; PARP resistant cohort, TME phenotype ID (n = 5)
  Overall response rate (ORR): 20
[2]; PARP resistant cohort, TME phenotype IS (n = 5)
  Overall response rate (ORR): 60

B5: PARPi/Immune Checkpoint Inhibitor/Navicixizumab (antibody, chains of the INN, looked up, V domains shown)
VH: B1 VH
VL: B1 VL
VH2: B1 VH2
VL2: B1 VL
modifications: with PARP inhibitor and checkpoint inhibitor
[3]; Platinum-sensitive cohort, n = 20 per treatment group
  Overall response rate (ORR): 80%

B6: bavituximab and an anti-PD-1 checkpoint inhibitor: phosphotidylserine-targeting antibody bavituximab in combination with anti-PD-1 (antibody, chains of the INN, looked up, V domains shown)
VH: EVQLQQSGPELEKPGASVKLSCKASGYSFTGYNMNWVKQSHGKSLEWIGHIDPYYGDTSYNQKFRGKATLTVDKSSSTAYMQLKSLTSEDSAVYYCVKGGYYGHWYFDVWGAGTTVTVSS
VL: DIQMTQSPSSLSASLGERVSLTCRASQDIGSSLNWLQQGPDGTIKRLIYATSSLDSGVPKRFSGSRSGSDYSLTISSLESEDFVDYYCLQYVSSPPTFGAGTKLELK
modifications: plus anti-PD-1 checkpoint inhibitor
[4]; A (n = 10)
  ORR (%): 0%
  PFS % at 20 weeks: 0%
[4]; IA (n = 10)
  ORR (%): 90%
  PFS % at 20 weeks: 100%
[4]; ID (n = 10)
  ORR (%): 0%
  PFS % at 20 weeks: 0%
[4]; IS (n = 10)
  ORR (%): 90%
  PFS % at 20 weeks: 100%

B7: Bavituximab plus radiation (antibody, chains of the INN, looked up, V domains shown)
VH: B6 VH
VL: B6 VL
modifications: plus radiation
melanoma; Biomarker Negative (n = 10)
  Overall response rate (ORR): 60%
melanoma; Biomarker Positive (n = 10)
  Overall response rate (ORR): 90%
melanoma; TME phenotype A (n = 5)
  Overall response rate (ORR): 60%
melanoma; TME phenotype IA (n = 5)
  Overall response rate (ORR): 80%
melanoma; TME phenotype ID (n = 5)
  Overall response rate (ORR): 60%
melanoma; TME phenotype IS (n = 5)
  Overall response rate (ORR): 100%
